In experiment [1] the target is membrane-bound GFP (pHR_EGFPligand).
The target is the same in experiment [2]. The source holds these as a separate data set.
Experiment [3] has the same target. The source holds these as a separate data set.
The target is the same in experiment [4]. This is another data set of the same source.
The target is the same in experiment [5]. This is another data set of the same source.
The target is the same in experiment [6]. The source holds these as a separate data set.
For experiment [7] the target is unchanged. This is another data set of the same source.

Take “LaG17_synNotch_TetRVP64 (synNotch receptor against GFP with a tTA intracellular domain)”: the % dsRed-Express-positive receiver cells after 10, 30, 60, 120 and 180 min of contact with antigen-expressing sender cells (ratio 1:1), flow cytometry 48 h later; 7.3% to 37.3% in experiment [1] amounted to 37.3%. This substance also came in with a % dsRed-Express-positive cells at the first sort of the transduced bulk receiver population after activation with antigen-expressing cells (flow cytometry) in experiment [2] of 10.3%. Moreover, the % dsRed-Express-positive receiver cells after co-culture with antigen-expressing sender cells at three sender-receiver ratios (5:1, 1:1, 1:5), flow cytometry after 48 h; 7.6% to 40.1% in experiment [3] was 40.1%. Further, in experiment [4], the % Activation in Bulk Population (dsRed-Express, 60 min, sender:receiver 1:1) came out at 31.3% and the % Activation in Clonal Cell Lines (dsRed-Express, 60 min, sender:receiver 1:1) stood at 73.5%. Besides, in experiment [5], the Overall efficiency of indel formation at the CXCR4 locus (TIDE) after activation of receiver cells by GFP sender cells (1:1, 60 min), Experiment 1 was determined as 34.5%; the Overall efficiency of indel formation at the CXCR4 locus (TIDE) after activation of receiver cells by GFP sender cells (1:1, 60 min), Experiment 2 is 41.3%; the Overall efficiency of indel formation at the CXCR4 locus (TIDE) after activation of receiver cells by GFP sender cells (1:1, 60 min), Experiment 3 was determined as 45.4%. In experiment [6], this substance gave a synNotch-mediated fluorophore expression, bulk population before clonal expansion (differs from Table 2) of 34.8% and a synNotch-mediated fluorophore expression, clonal cell line (differs from Table 2) of 73.6%. In experiment [7], this substance yielded an Indel formation frequency at the CXCR4 locus (TIDE) after activation by GFP sender cells, receiver cells kept in low FBS (G1 arrest) of 37.4%; an Indel formation frequency at the CXCR4 locus (TIDE) after activation by GFP sender cells, receiver cells kept without FBS (G1 arrest) of 31.4%; an Indel formation frequency at the CXCR4 locus (TIDE) after activation by GFP sender cells, receiver cells treated with nocodazole (G2/M arrest) of 34.4%.

The values above are taken from publication PMC7563181.
